In article doi:10.1101/191742:
“And” between values parts separate entries of the source, which are not always exact repeats. Equal values may be shown once. Read-outs that look alike come from different tables or passages of the source.

Columns and labels:
Assay in all cases: single-molecule diffusometry in an ABEL trap
[1] = target: Nicotiana tabacum Rubisco activase S379C (Nt-Rca-S379C) (Nicotiana tabacum)
[2] = target: Nicotiana tabacum Rubisco activase S379C (Nt-Rca-S379C) (Nicotiana tabacum); remark: listed apart in the source
[3] = target: Nicotiana tabacum Rubisco activase S379C (Nt-Rca-S379C) (Nicotiana tabacum); remark: listed apart in the source
[4] = target: Nicotiana tabacum Rubisco activase S379C (Nt-Rca-S379C) (Nicotiana tabacum); remark: listed apart in the source
[5] = target: Nicotiana tabacum Rubisco activase S379C (Nt-Rca-S379C) (Nicotiana tabacum); remark: listed apart in the source

- rate of subunit exchange [1]: > 0.2 s⁻¹
- equilibrium constant for hexamer formation from dimers (Kd 2-4 x Kd 4-6) [2]: 0.2 μM^2
- rate of subunit exchange [2]: 0.1 s⁻¹
- stoichiometry N [2]: 2
- stoichiometry N [3]: 4 and 6 and > 6
- stoichiometry N [4]: 2
- stoichiometry N [5]: 4 and 6
Substance: Nicotiana tabacum Rubisco activase S379C (Nt-Rca-S379C) (enzyme)
